The values that follow come from patent publication US20090170718.

In the data set the target is Botulinum neurotoxin type A light chain (BoNT/A-rLc) (UniProt P0DPI1).

For orientation: Kd means the equilibrium constant for the complex coming apart. The low end stands for higher affinity, the high end for lower affinity. “AGCAGCACAGAGGTCAGATGNNNNNNNNNNNNNNNNNNNNNNNNNNNNNNNNNNNNNNNNNNNNNNNNNNNNNNNNNNNNCCTATGCGTGCTACCGTGAA [round 1 enriched aptamer pool (M-SELEX)]” returned a Kd of 0.033 µM.
